Source: patent publication US20160222395

Columns and labels:
[1] = system: ALS2_T1 TALE nuclease right subunit (synthetic construct); assay: cell_activity; details: yeast beta-galactosidase recombination assay, 37 C, as pair with left subunit; 0.86 (0.02) at 30 C; also cleaves in N. benthamiana leaves (T7EI)
[2] = system: ALS2_T1 TALE nuclease left subunit (synthetic construct); assay: cell_activity; details: yeast beta-galactosidase recombination assay, 37 C, as pair with right subunit; 0.86 (0.02) at 30 C; also cleaves in N. benthamiana leaves (T7EI)

Row | Sequence | activity (relative to I-SceI (max 1.0)) [1] | activity (relative to I-SceI (max 1.0)) [2]
1 | ACAGTACGACCCAGTCT (double strand) [ALS2_T1 right target half-site] | 0.97 | –
2 | TAGCTTGTTCCACATTT (double strand) [ALS2_T1 left target half-site] | – | 0.97
